The supplement of paper PMC10065799, “High-throughput profiling of sequence recognition by tyrosine kinases and SH2 domains using bacterial peptide display” (eLife, 2023)

Molecular target: EPHB2 (UniProt P29323)
Assay: phosphorylation enrichment, bacterial display (enrichment ratio); higher = better substrate or ligand; peptides without Tyr show the background
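Further: 11-residue human phosphosite peptides and single-mutation variants displayed on the E. coli surface, counted by deep sequencing, each peptide's frequency after selection divided by its frequency in the unselected input library; frequency after pTyr selection over input frequency; kinase dosed for 20-30% of maximal phosphorylation in three min.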

Sequence of EPHB2 (P29323 whole entry, looked up): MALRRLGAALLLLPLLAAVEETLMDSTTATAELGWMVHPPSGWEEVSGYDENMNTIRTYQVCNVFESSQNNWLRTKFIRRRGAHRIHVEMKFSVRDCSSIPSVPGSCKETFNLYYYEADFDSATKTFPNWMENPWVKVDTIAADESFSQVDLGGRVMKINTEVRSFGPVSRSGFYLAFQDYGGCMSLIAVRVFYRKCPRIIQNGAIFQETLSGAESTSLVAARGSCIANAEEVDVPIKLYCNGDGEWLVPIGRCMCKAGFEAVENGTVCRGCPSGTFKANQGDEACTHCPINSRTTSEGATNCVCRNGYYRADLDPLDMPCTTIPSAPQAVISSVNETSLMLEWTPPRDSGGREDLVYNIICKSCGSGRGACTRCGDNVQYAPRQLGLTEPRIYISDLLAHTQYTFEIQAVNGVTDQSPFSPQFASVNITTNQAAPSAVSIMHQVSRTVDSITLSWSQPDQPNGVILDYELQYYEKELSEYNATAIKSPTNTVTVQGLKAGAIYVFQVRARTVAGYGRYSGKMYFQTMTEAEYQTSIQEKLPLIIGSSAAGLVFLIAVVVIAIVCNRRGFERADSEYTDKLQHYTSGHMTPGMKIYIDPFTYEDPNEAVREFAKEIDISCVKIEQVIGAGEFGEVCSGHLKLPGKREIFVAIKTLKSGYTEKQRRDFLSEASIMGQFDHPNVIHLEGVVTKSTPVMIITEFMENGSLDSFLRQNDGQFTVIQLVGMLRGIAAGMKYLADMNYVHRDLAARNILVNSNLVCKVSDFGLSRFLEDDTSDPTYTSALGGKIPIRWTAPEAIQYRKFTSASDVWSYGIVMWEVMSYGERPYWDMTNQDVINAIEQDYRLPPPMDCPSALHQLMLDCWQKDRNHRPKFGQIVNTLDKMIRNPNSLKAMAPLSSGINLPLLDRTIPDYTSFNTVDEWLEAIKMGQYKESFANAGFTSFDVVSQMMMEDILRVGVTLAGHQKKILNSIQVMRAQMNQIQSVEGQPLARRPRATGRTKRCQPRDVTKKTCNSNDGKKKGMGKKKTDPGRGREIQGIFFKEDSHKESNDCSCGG

Sequence | phosphorylation enrichment
TYGVLYKARNK [CDK2_Y19_V18L] | 0.532
FADIAYNYRDG [PAH_Y166_H170D] | 0.501
RLLREYQELMN [KRT75_Y434] | 0.613
ETCLAYREKRI [TEKT1_Y118] | 0.519
RDMNACIRPSP [MMAA_Y207_Y207C] | 1.07
RVQQIYSDSDL [MIB1_Y376] | 0.837
SGVVPYEPPEV [TP53_Y220_V216G] | 0.738
LFSLGYHQSRW [GANAB_Y396] | 0.724
NQNIGYELGHR [KCNN3_Y268_K269E] | 0.318
IRQDDYESLKE [MTR_Y921_H920D] | 0.553
GVLKEYGEKVL [CPS1_Y529_V531E] | 0.474
MILSAYALGGL [CPS1_Y590_R587L] | 0.562
LAIELYVVVCK [RHO_Y136_R135L] | 2.06
YALAEYTEVKT [ALDH1A3_Y497] | 0.719
ADARMYGVLPR [PLP1_Y207_W212R] | 0.477
LEQRPYRRGSE [KCNJ12_Y427_E430G] | 0.478
CTTIHYNFVCN [TP53_Y234_M237V_YF] | 0.654

Sequence | phosphorylation enrichment
GGDVIYKGFED [NFU1_Y194] | 0.491
LRSRVYEVPVE [SLC26A3_Y756_N753S] | 1.03
KSELAYEIFDK [MYOM2_Y1024] | 0.603
CTTIHYNFMGN [TP53_Y234_C238G_YF] | 0.487
AVLVQYYMEHH [PTPN11_Y80_E76V] | 1.32
RNYGTYTAGLS [RHBDD1_Y264_D262G] | 3.23
MGGSLYFSYPD [HIKESHI_Y55_V54L] | 5.75
HAVFVYDICHV [TWNK_Y508_YF] | 1.36
LARNMYDKEYY [MET_Y1230_D1228N] | 0.546
LLANAYIFDVQ [L1CAM_Y418_V421D_YF] | 0.838
RLLRGHDQFAF [HLA-B_Y137_YF] | 0.32
IDFARYWHGND [MMP11_Y162_D166N] | 0.486
EVEFEYPFRLH [SYP_Y73] | 0.584
FRQNGYIPGSN [PCDHGA1_Y895_V894G_YF] | 0.359
DAVKHYMQFRK [CNGA2_Y395] | 0.363
YGPPQYNIQYS [ERBB2IP_Y977] | 0.592

Molecular target: FGFR1 (UniProt P11362)
Assay: as above

Sequence of FGFR1 (P11362 whole entry, looked up): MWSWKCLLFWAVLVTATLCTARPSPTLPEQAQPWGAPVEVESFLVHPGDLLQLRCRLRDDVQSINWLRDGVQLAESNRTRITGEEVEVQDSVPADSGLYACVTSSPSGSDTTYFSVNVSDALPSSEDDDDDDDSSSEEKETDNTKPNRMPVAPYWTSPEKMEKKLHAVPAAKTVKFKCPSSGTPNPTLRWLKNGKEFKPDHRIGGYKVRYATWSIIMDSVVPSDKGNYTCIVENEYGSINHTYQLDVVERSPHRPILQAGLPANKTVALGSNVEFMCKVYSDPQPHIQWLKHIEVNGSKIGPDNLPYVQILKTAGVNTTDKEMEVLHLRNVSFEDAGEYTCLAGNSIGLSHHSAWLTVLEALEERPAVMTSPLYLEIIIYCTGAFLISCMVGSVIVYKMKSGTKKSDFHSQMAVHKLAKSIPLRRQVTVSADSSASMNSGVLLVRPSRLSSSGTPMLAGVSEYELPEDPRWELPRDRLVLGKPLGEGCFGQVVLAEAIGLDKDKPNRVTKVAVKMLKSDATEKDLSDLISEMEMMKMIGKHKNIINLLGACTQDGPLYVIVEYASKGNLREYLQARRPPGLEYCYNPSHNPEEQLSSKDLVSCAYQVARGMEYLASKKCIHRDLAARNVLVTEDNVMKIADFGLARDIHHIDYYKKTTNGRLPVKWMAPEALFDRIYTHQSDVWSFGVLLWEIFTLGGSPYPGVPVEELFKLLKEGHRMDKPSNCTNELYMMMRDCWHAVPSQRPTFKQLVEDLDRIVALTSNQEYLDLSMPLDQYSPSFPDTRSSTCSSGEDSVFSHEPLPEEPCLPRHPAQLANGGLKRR

Sequence | phosphorylation enrichment
TYGVLYKARNK [CDK2_Y19_V18L] | 0.394
FADIAYNYRDG [PAH_Y166_H170D] | 0.397
RLLREYQELMN [KRT75_Y434] | 0.785
ETCLAYREKRI [TEKT1_Y118] | 0.61
RDMNACIRPSP [MMAA_Y207_Y207C] | 0.934
RVQQIYSDSDL [MIB1_Y376] | 0.574
SGVVPYEPPEV [TP53_Y220_V216G] | 0.588
LFSLGYHQSRW [GANAB_Y396] | 0.567
NQNIGYELGHR [KCNN3_Y268_K269E] | 0.343
IRQDDYESLKE [MTR_Y921_H920D] | 0.5
GVLKEYGEKVL [CPS1_Y529_V531E] | 0.419
MILSAYALGGL [CPS1_Y590_R587L] | 0.431
LAIELYVVVCK [RHO_Y136_R135L] | 1.4
YALAEYTEVKT [ALDH1A3_Y497] | 1.73
ADARMYGVLPR [PLP1_Y207_W212R] | 0.467
LEQRPYRRGSE [KCNJ12_Y427_E430G] | 0.365
CTTIHYNFVCN [TP53_Y234_M237V_YF] | 0.694

Sequence | phosphorylation enrichment
GGDVIYKGFED [NFU1_Y194] | 0.499
LRSRVYEVPVE [SLC26A3_Y756_N753S] | 0.722
KSELAYEIFDK [MYOM2_Y1024] | 0.65
CTTIHYNFMGN [TP53_Y234_C238G_YF] | 0.542
AVLVQYYMEHH [PTPN11_Y80_E76V] | 0.753
RNYGTYTAGLS [RHBDD1_Y264_D262G] | 0.546
MGGSLYFSYPD [HIKESHI_Y55_V54L] | 3.4
HAVFVYDICHV [TWNK_Y508_YF] | 0.631
LARNMYDKEYY [MET_Y1230_D1228N] | 0.631
LLANAYIFDVQ [L1CAM_Y418_V421D_YF] | 0.874
RLLRGHDQFAF [HLA-B_Y137_YF] | 0.309
IDFARYWHGND [MMP11_Y162_D166N] | 0.508
EVEFEYPFRLH [SYP_Y73] | 0.42
FRQNGYIPGSN [PCDHGA1_Y895_V894G_YF] | 0.416
DAVKHYMQFRK [CNGA2_Y395] | 0.344
YGPPQYNIQYS [ERBB2IP_Y977] | 0.462
